According to patent US20050142568A1 (published 2005):

B3: GST-CPS-6 (other, C. elegans, UniProt Q95NM6 1-308, looked up)
chain: MIGKVAGTAAIAGISFLAGKYSNDDLPIFRNVQSATNVPMNQIQVSEPMTVKPASLNADAMGPSRSAEIMKHGYPGFTNVRTYEDFVLSYDYKTRTAHWVCEHLTPERLKHAEGVDRKLCEFKPDITFPQKFLSQNTDYKCSGFDRGHLAAAGNHRKSQLAVDQTFYLSNMSPQVGRGFNRDKWNDLEMHCRRVAKKMINSYIITGPLYLPKLEGDGKKYIKYQVIGDNNVAVPTHFFKVALFEVTPGKFELESYILPNAVIEDTVEISKFHVPLDAVERSAGLEIFARLDPKSIVKENGAKKGGLLW
notes: GST at the N-terminus as in pGEX vectors; also called CPS-6 GST-fusion protein; not shown: glutathione S-transferase tag encoded by vector pGEX4T-2

Tests used:
Assay in all cases: GST pull-down, 35S-Met protein vs GST fusion; - means no detectable binding (footnote a)
[1] = molecular target: T1, ^35S-Methionine labeled CRN-3 (C. elegans, UniProt G5EBX6 1-876)
T1 sequence: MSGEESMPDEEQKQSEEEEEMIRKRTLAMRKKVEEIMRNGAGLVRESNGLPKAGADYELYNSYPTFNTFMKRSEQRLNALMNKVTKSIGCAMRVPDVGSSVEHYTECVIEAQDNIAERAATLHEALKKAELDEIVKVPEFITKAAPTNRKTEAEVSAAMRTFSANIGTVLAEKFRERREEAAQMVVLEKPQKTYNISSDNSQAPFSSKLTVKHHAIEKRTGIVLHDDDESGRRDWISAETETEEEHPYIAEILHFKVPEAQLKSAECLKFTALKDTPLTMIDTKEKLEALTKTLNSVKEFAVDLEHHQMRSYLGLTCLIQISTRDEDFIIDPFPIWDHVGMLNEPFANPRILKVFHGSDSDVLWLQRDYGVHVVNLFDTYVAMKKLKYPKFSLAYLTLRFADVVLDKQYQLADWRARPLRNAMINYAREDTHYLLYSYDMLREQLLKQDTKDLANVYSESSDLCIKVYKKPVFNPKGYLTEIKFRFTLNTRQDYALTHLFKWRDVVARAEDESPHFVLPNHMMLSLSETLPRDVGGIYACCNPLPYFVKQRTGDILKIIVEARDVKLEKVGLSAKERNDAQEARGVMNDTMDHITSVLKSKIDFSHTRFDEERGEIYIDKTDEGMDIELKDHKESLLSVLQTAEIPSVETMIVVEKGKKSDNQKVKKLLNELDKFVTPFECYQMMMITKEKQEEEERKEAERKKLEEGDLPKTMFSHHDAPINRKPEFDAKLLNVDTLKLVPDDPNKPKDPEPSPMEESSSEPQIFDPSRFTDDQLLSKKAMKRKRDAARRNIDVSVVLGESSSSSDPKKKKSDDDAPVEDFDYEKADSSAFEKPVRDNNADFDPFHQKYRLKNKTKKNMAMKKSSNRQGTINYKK
Method: (§1) GST fusion protein pull-down assays were performed as described in J. Parrish, H. Metters, L. Chen, D. Xue, Proc. Natl. Acad. Sci. U.S.A. 97, 11916 (2000). Purified GST or GST-fusion proteins (5 μg each) immobilized on glutathione sepharose beads were incubated with ³⁵S-Methionine labeled proteins at 4° C. for 2 hours. The beads were washed extensively and the bound proteins were resolved on a 12% SDS-PAGE and visualized by autoradiography. [0103] cDNAs corresponding to the ORFs were cloned into the pPD129.36 vector via its Nhe I and Xho I sites or the Xho I site alone. Full-length cDNAs were subcloned into the pGEX4T-2 vector for generating GST fusion proteins and for further protein purification and into the pcDNA3.1 vector for in vitro transcription/translation experiments.
(§2) ^aInteractions were evaluated relative to background binding of ³⁵S-Methionine labeled Luciferase to GST-fusion proteins and ³⁵S-Methionine labeled proteins to GST. “−” indicates no detectable binding, “+” indicates an interaction consistently observed above background levels, and “++” indicates a strong interaction. ^bBecause ³⁵S-Methionine labeled CRN-1 binds GST tightly, it was not possible to evaluate interactions between ³⁵S-CRN-1 and various GST-fusion proteins. ND, not determined.

[2] = molecular target: T2, ^35S-Methionine labeled CRN-6 (C. elegans, UniProt P34508-2 18-373, limits assumed, 35S-methionine labelled)
T2 sequence (looked up): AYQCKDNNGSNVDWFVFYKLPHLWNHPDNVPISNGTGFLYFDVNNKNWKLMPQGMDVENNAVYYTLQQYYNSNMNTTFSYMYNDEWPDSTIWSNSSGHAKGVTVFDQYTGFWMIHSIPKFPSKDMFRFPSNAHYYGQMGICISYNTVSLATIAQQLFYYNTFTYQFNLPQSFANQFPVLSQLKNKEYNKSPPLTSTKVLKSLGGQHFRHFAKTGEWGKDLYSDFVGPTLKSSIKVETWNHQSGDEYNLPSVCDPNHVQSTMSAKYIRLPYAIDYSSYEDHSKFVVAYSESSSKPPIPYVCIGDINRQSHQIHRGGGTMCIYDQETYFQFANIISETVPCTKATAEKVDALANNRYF
Method: as §1, §2

[3] = molecular target: B3
Method: as §1, §2

[4] = molecular target: T3, GST-NUC-1 (C. elegans, UniProt Q17778 22-375)
T3 construct: also called NUC-1 GST-fusion protein; not shown: glutathione S-transferase tag encoded by vector pGEX4T-2
T3 sequence (looked up): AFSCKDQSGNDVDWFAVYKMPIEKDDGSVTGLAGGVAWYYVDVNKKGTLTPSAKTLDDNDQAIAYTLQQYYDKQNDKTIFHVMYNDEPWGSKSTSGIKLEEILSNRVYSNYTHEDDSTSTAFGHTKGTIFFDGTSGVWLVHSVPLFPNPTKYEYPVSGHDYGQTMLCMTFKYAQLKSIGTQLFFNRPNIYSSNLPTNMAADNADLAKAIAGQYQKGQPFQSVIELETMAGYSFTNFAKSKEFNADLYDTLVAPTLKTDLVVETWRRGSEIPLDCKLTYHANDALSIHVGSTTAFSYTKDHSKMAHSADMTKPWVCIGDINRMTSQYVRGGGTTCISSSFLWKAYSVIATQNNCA
Method: as §1, §2

[5] = molecular target: T4, GST-CRN-3 (C. elegans, UniProt G5EBX6 1-876)
T4 construct: also called CRN-3 GST-fusion protein; not shown: glutathione S-transferase tag encoded by vector pGEX4T-2
T4 sequence: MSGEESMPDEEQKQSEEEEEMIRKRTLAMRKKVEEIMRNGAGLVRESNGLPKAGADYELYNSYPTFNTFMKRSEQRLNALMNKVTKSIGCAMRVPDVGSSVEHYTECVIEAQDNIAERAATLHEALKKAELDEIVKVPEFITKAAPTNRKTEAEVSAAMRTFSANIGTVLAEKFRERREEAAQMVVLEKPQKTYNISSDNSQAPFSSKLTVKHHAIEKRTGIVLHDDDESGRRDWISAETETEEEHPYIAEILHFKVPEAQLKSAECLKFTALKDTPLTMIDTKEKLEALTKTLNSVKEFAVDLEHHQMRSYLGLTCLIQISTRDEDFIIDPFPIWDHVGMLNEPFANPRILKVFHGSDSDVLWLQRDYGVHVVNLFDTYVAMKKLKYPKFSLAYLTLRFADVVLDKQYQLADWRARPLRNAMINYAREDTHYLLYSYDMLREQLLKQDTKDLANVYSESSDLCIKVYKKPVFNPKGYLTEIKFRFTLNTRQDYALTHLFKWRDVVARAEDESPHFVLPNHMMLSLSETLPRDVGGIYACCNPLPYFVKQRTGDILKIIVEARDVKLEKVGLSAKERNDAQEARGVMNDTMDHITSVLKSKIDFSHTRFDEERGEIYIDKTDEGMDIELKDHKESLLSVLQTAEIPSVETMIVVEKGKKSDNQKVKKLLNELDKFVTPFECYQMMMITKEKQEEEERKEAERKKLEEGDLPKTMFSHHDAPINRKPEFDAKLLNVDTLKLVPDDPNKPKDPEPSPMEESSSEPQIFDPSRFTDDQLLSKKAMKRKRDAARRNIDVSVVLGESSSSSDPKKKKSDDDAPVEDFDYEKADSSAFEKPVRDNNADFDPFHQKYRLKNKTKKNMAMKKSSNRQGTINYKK
Method: as §1, §2

[6] = molecular target: T5, GST-CRN-6 (C. elegans, UniProt P08515 1-218 = GST; P34508 1-373)
T5 construct: Two crn-6 cDNAs (700 bp and 1.1 kb) were isolated; the longer one made the GST fusion; also called CRN-6 GST-fusion protein
Method: as §1, §2

[7] = molecular target: T6, ^35S-Methionine labeled NUC-1 (C. elegans, UniProt Q17778 22-375, 35S-methionine labelled)
T6 sequence (looked up): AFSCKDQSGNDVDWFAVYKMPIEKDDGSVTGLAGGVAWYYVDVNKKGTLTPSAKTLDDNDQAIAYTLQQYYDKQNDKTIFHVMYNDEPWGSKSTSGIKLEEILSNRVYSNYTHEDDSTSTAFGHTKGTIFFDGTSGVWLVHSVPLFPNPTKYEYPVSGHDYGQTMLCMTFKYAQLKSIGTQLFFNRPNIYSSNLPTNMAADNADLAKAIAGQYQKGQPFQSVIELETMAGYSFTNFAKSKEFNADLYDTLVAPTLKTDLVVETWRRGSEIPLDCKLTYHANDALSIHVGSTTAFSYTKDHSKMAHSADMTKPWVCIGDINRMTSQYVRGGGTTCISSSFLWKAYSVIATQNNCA
Method: as §1, §2

Measured: binding result

B1: GST-CRN-4 (other, C. elegans, UniProt Q10905 1-298, looked up)
chain: MAYQHCPFDTLLILDFETTSDAANQDYPCEVIQFAIVAYDVPNDKIREDISFNKYVKPVLNRTLTKNCVDFTGIPQRSIDTADTFDVVYEQFQQWLITLGLEEGKFAFVCDSRQDLWRIAQYQMKLSNIQMPAFFRQYINLYKIFTNEMDRMGPKELSATTNIGKMNEYYDLPTIGRAHDAMDDCLNIATILQRMINMGAKVTVNELLTCCASWRRQPLVYNKEWRSSFMDAGKIFERVLPLVVTTIRAGDFRLEMYGVCRYCRKGMDVCGTSHQQTPHDLYKNEEDPIHFAKIAGYY
notes: also called CRN-4 GST-fusion protein; not shown: glutathione S-transferase tag encoded by vector pGEX4T-2
no binding: [1] | [2]

B2: full-length ^35S-methionine labeled CPS-6 (enzyme, C. elegans, UniProt Q95NM6 1-308, looked up)
chain: MIGKVAGTAAIAGISFLAGKYSNDDLPIFRNVQSATNVPMNQIQVSEPMTVKPASLNADAMGPSRSAEIMKHGYPGFTNVRTYEDFVLSYDYKTRTAHWVCEHLTPERLKHAEGVDRKLCEFKPDITFPQKFLSQNTDYKCSGFDRGHLAAAGNHRKSQLAVDQTFYLSNMSPQVGRGFNRDKWNDLEMHCRRVAKKMINSYIITGPLYLPKLEGDGKKYIKYQVIGDNNVAVPTHFFKVALFEVTPGKFELESYILPNAVIEDTVEISKFHVPLDAVERSAGLEIFARLDPKSIVKENGAKKGGLLW
modifications: 35S-methionine labelled
notes: also called ^35S-CPS-6
no binding: [3] | [4] | [5] | [6]

B3
no binding: [7] | [1] | [2]
